# Assay: soluble on expression in E. coli; label from the status in PepcDB or PDB records
row,Sequence,soluble on expression in E. coli
1,GPGSMAHLFFTGACAAAAALPISDREEVSPVWSIYDDYCCGASQHAEVDDPQVEGEGVGNCGGTTPPRLPFISGPVSSMTLKGAQLKKEAPIRRGAQGAVYSALDVATSAPAEDEKAKGLFSPEACRGHEGEAQVADGGQRPARRGRRVAVKRIFIQASDFGARDISATVLREVTLHRFVSEKQAACLAAAGAFYPTGSTSDATALAEADQGQTLCNLIDDSARVIHLYRVVEAPHKEMCLVMELAATNLEQVVFPHGARGASRGDGAGGYKRKPGVVSLFGSSASIGVGGGLGLSSASPSTAPDAATAEVGPQASSPSPPPSRMPLVRYVMRRLLRLVCFLHETCCVVHRDLKLSNVLVSKDAGLRLGDFGSARFIPPLRSATKTGVENSPSVPEPPAAPAGQREHLLCTPPSIRTTLHYRPPEALLGDQVCRTAADVWALGVIFAQLLLQKGLFHSESELDLLGAIQKLLGMPTYSAPPSWLAAPSVPGPPRERESAAHVPAPQASLPYKFHTGVVPADGLDLLSRMLHQQPECRVTAREALQHPFLNLEGLSAAATHDDDERGRVLWEERVATVLREQATGHIYGMGGGERRPMLISLADNEDEEDQEDDEVGVAPFCVNLGGCTSY,not soluble
2,GPGSMAPNQFVELVDTVEKYATRGSNECGCRIDTREESIPSNTLVGYPFANAEGVGVHLSYRKGDITLSADVSSNPKATWRDVLPTFSWTRSLRGQQHEVLLRLAMTPLFAYSFSHPQFTCSSEVNFMDGFRSKFTTSTQLSMRNQLGACVEYDPSRSGVIDYTVAFLRAGCSAVLGGDFVVQYNATRGLGVHTRIPVKPFMGAVALVERGRVIIGTEARSPCGAQMMMNLDLVNSRVMLAVVRNISTVWKFTFNYSAPLPGTSSAARRFGLVFTSQDAP,not soluble
3,GPGSMCNRFSCSSCRYVVPIQSRRPLTINHSFLKYNKVVDDDDEKGSSNTVKRGVKEEEEVDGGQVITVRCQNDEKQCDGDRAHYVQIQMRSADEPATTFFKCLKCGFQWKQD,soluble
4,GPGSMDEFVYNRCSLNPIHWVLMLKGCLVDLFFSVRPINFSYSRVGMTNLAGERDQAACLREIRRAVRIIEGRKRTVATGTNKDSFQDMDSRCHTPERPLRLHLVLFGFSRGATTTFYTAMKLPPELATYVSLVVVEAAFDTLHNVIESSCWFPSFVLWFFRTFCDYSGEDAYKYDRNQIHLRCPIAFVMSVKDTRVPNELTQRLIDNVKADCPQIPAVEVLQLKHSRHPLMAVGNREDQDAYVAFMEGLYDRYCN,not soluble
5,GPGSMDKDVDVTKLTAQALQVHIERCERLMKQPALLSRLPDGGNGIRERYSKYLAEVERRKTNGAASALTAQKDGDGEVRDEDEAQSRPAAVEGCQDEKTVGDTTTAEVTYEEEARAIGERHRHFRVPVEEIVRRTFGGSLCDSELQRIINDVPPGFFLTYEETMSMERKLMEEERAETLERLRRQRSAGGVQ,soluble
6,GPGSMEDAHMLVATDDADVAYFGIFDGHSNAECSAYVARELPQRLKKLPESITAEMLEKVCIEVDEAYMKTSTEGGTTGTFCVIRKDLTVTIANVGDSRILVCRGGKLIFATEDHKPYIPGETERIVACGGSVVSNRVDGDLAVSRAFGDASFKVKGTKDYRMQKVIAVPDVSVLQCEPNDFIILACDGVFEGNFSNEDVCQFVWEQQQNCWDDLAVVACRVCDEAIRCGSKDNISCLVVQLAEGASRVKAFGATSFVPGPPFPRNQQPCRAAYAQMAELGHTTTAAALQTRYQLLQAFSKNKLNSQPPVMRTAFEMSDEVDVETEWSFFGKGPAPGNEKNFFEALANTGNSS,not soluble
7,GPGSMELTEEERGLLILRLHQVLRPFLLRRTKADVDSTLRMTFHHMWCPLSAMQQRLLCMLREQRRIPTVLGMAGGYSGKSSSSSEADNEEEEEAAGAADAAAHTSTFPAAEIGADESTGCTPYIAVAALAADALHGKASPDLDPLQARNETAMPRDRLAELVWRHLPALASTESSDILRCAVQQDRALGLTSAGVSESSARLVCNHAFLLPFFSQVLHRHGLDEVTQEGCNDADAAAVATSESSVVGAEAAERCGAAGLTLACSGKFLVLHLLLSRLYVAQRKVVLFTHWLNCVDLLVDYLYSRGWADHAEVLTGGSSEAERLTSVRRFREDPGCLFFLLSIKAGGCGINLQAAHMVVLVDRDYTVTNEDQALARVYRIGQRYTVRAVYLATTDSSEQHVAQRATAKNKPRQAIINDGVYQVTTASEGERVGETGEAVTAAKFADPPSHAYNELDTSELWRSISGATTPPSPTTAMQEARRPECDGTASGAARPAPFSLPPPEAFWVALSCLVESMDELVLTEEDRAAATVRSAEEERRSMGCTPANSAAARLLATRPPRSTAELHLRLQGGRDEMFSGPQRERGVAPSLSGTAASDAYLGVWKQSAEAPTTGDRTRSHTPSEPQAAALAAAPQPTPRSAPVTDPLQNSALFWLEYSHLLRIAGRGPYLLSDSLRVAVTNDTRKNDPEERVRRRQRRDRRVAKRLRLASVDVPDDFREACWAKEGIDDDAEVAERYLRFLDANAGKRRQRRRKDAG,not soluble
8,GPGSMFDLTGRKALVTGATGGLGEAIARALHAQGAIVGLHGTREEKLKELAAELGERIFVFPANLSDREAVKALGQKAEEEMGGVDILVNNAGITRDGLFVRMSDEDWDAVLTVNLTSVFNLTRELTHPMMRRRNGRIINITSIVGVTGNPGQANYCASKAGLIGFSKSLAQEIASRNVTVNCIAPGFIESAMTGKLNEKQKDAIMGNIPMKRMGVGADIAAAVVYLASDEAAYVTGQTLHVNGGMAMI,soluble
9,GPGSMFGRSALCLAKRFRYNTKYPSLVSYNKLPWEILNHETPEFHMHVAPHYEQIMTLAASTHVPHIVGKKHLEMPPEHRLRLLPGMFYMLDGDSIPEGFTANRVLDPTALQYYGRLESLVAPVQAVRMLISDDLRIVCNSVTLQGPLQLPVASYASLASLEVVTNKASASFTLFHFVRPNRPPSELQLEKYYIHAPRAMALAEFNSTSNTSWEPKLQAPKRSKRVTPLPAYRPPQSYLMGLAERLAVVPGSSFGRRSLMWGHWF,not soluble
10,GPGSMFHNSYQAGFLSILYSIGSKPLQIWDSQVRNGHVKRITDEDIQSSVLEIMGSNVSTCYIVCPANPKQTLGIKLPFLVMIIKNMKKYFSFEVTILDDKNMRRRFRASNYQSTTKVKPFICTMPMRLDEGWNQIQFNLSDFTRRAYGTNYVETLRVQVHANCRIRRLYFSDRLYAEEELPPEFKLFLPIAQQPPAAAAAEQRDIEAADVPQAASAAQ,soluble
11,GPGSMFTPSTRFLCSARPLLWFGRRGVFAAPHPEKAKTGGEDAFVVHTSGIGVADGVGGYASYGVDPGVYTRNVMKHTLRALQEDDNRGTIGALQALTYGYTEAQKLKQPGGCPVTLVTLLDGRFASVLNLGDCGTICLRSSKLFFATEPQQHSFNCPYQLPEDPPSVGDRTTLEVSEGDVFLCASDGLLDNVDMSDILRHLDAVNRDGCQRVAENLVACACRNGANKGFDSPFAKQARAVGYHYMGGKQDDVTVVVAQLTRGTVAPDDCPSLITELLDVHKT,not soluble
12,GPGSMHSEQSICEFIHMQRELRRCYATMENYEVVIAQLRDDCALSRAQLCRFQQEHAQRGKDVEAQVRAELTEQTNARLSALRQSEASDALCLKTSAGPDRNTTDAAEEYRRDTCQATLDELRRALQEEQSAHAECLARLTEALAAKARWKSRAVELLKWRKQVCGQMYMSSTPSSSSFVAGARAIGTCGALPGVSTISNCASDSQAEPNAGNSASDVSSPSQRLYRPPSPYKPPPCVSSPSEAGKLRSSMTSEASAALPASPYEGGTGACAADKENEKDSSSTPGADISCQSDSTAVSFLSPSTTPAGRVAQALGSGVVVVWPPLAERQEMSTRKSAESSRTQSSTTAAALESGNPALLDDSGKQGLQPSPPTSSVSPGVLPSSVGRYTTSAVGSRTQAGCRLPLVGCEKAVVAAEPLRVMPDPFAFPRPPPSGGVTCTNHSLLSTSDELPTSCDVSAAMASSAAERQCNELLRALLDKEQQLALIAEERTKYKRLYEATQS,not soluble
13,GPGSMHSTPAKEAEAEGYMRSGKKHLQKKLLQFKANYGGAAEDFDKAARIYTNLRNYPKAREAWTQACEAHSKAHNDFNAANSMEKLGDLASQCICESQSTMSSGSTAGMTAQLSEHLFQDAIHAYEEASKLYGVATNGSKQAAVLKKAADLISRSLATVHYRRPGTSGATTVDTAYLQKEYKRIIPELIELMERNWAATESKPFGLPDIYRSHVLLHLRSGDVEGAVHAEKRMIGIVSTSPADGTYDDSKNLFRILNQPSNAAKVGLEIVVLCLSTSVDDGYTWANIEMGRLGAVFGFCGSSEERAAAALLAAYAERDEDALQEALKTNTCFNFLAADVSRIAKKLTLGSKGHSKETGASVAAAGGPERSAAPPSSSQAPVDASETDSEDLR,soluble
14,GPGSMKRADGRESPRAVRAIHVATNVLANCHSSACVEIGKTRVLCGVRPPQHLVQEYRGTRGRVSCQVHRSLASSSNLDNSGDRDMALALEGVAEQAVVLERIPQLLVGVLIEVVHDDGALWDAATTALCVALTAGGVEVYDTFSACSAALRHDGAIIVDLTREEAAAAMASVVVCSGLSLGGVYYCCHKGACEATTMSQLVQAATKGLQVRKVPLLEQIRNQLV,soluble
15,GPGSMKRLLDSAKHLLRGGSLGYLASGEPYHPFGEDFGLTVFPDYIQLREKLALRSGYVDVYTQRSASIKLSDGRFQLPPLPKHSFLPLVERLEQDGIVPRGWLNNQTANLYEPEDFIRAHIDNLFVYDDIFAVISLGANALLRFVHVQNGEELDVVIPDGSVYIMSGPSRYVYFHMVLPVEAQRVSIVFRRSILNSDGGFRPVSTPLGDLMPYRSTQILNTLYAKQIGGVRVAVDDKYLEKEEIGAFDTGKWVKGLHPLRDWTLLSQLDEDEARVLELREKRYLDVDLSWRFTELRKRYKELEDMLRV,not soluble
16,GPGSMLRGTRLMLMMQLHSLPTPNPSCYTFHIPSSTYDNFIPDGQTCDVAHMGLAWVHPLSQGIFEQYPQEVASVFIAPRHTSITVHPHVDWNKLEWSISSFIGHYLVFTNACFPAAAEYALLEDDLVIHEDDSEVLQCIKELVREQVRPMVQRDGGDVKLLNFNEKTGVVSLAMLGACRTCPSSQNTLKDGVERLLKHFLPEVKEVVEAKGHAFYEEYGLLFDSEKALREEAARVDAVRRRKISIYTTAPLMPFEALNEPDGDE,not soluble
17,GPGSMLRKVTSPYKVSIRRTAASVTAADSKKAILRLIRFDPETNKQRVESYEYDKHHDYMVLDLITAVKAHQDPTLAFRASCCEGVCGSCAMNINGVNSLACITFSQQVTTVGPLPNFPVIKDFVVDLRHFFRQYAYIRPFVRNVNLDRSRLDNIVERYKTITKVIHGVPSDDEAQLAQLESKSGAQTDVMALLQLLDAVCESGNVTHLIRTLEALQERGMQLDQGKVKALIEETLQNYKKRKLGA,not soluble
18,GPGSMMILPHAEEVELRRGSSPATITSTTGRVNRVAVDTSSEENQEAVSQDRLEGRDDAGKSPTTSASPGTSSKKDRFQATSAQVKGALSTPRRAVYEFHDMFGFLVTEEEKAAEDYERRNNGYSRAYLDKWEYMMTHWANVRQDTLKRYCRRGVPQPKRCAVWQHLLQSWGMKDRFPGVYMRLHSQPLDSKDLADVIARDLDRTFPTNRLFSVKSGQGQQILRRLLHAYANYNPGVGYCQGMGFLAATLILQVEEEEDAFWAFVAVMENAKYNMKAVFAPSFPQLQCAFYVFEALMRQKMPKLYAHLHDRHPIPPSFYAVHWFMTIFTYHFNFGLVSRIWDMFFCEGWKPVYRIALALLKIEERRLLSLNTDTELLLVLKGIQESKRPVELLKTALKIRFKSAYMNQLMAEFNAQPS,not soluble
19,GPGSMNFTQQLWSVKEWGRVMATRSEYVQIVHDATNDEKWGPTGPQMDAVCNAYPRGGPEILNELRTRLNNRDKSWRPCYKSLLVIDYLARNVDDRYLPEISALVPIIRTISTSFYYTNPKGVDHGVSVRERAKKVADLLSDGLQLREERMVAAQIKAKLSHNASDGGGPNSDAPYSGAGSYGGSRDCDRYRSYVKGSRQAYDSYRSSPPPSAVLSRPRTKEEQERCDMEMALRLQRDEERRSGVSAEQLEEMYAT,soluble
